We go through ten molecules from patent publication US20260078185A1 (published 2026).

Experiment [1] has as its target T1, mouse VISTA recombinant protein (Sino Biological Inc., Cat. #51550-M08H), biotinylated (mouse, UniProt Q9D659 33-191, biotinylated using EZ-LINK NHS-PEG4 biotin).
T1 chain: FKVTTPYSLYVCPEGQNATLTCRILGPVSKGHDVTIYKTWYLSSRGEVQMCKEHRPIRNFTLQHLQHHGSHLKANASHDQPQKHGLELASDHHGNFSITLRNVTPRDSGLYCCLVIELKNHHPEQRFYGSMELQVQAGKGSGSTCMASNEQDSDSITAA
As to the kind of experiment: Octet (BLI).

The target in experiment [2] is T2, Human VISTA recombinant protein (Sino Biological Inc., Cat. #13482-H08H), biotinylated (UniProt Q9H7M9 33-194, biotinylated using EZ-LINK NHS-PEG4 biotin). In words: Octet BLI.
The target in experiment [3] is T1, mouse VISTA recombinant protein (Sino …). In words: Octet (BLI).
Experiment [4] concerns the target T2, Human VISTA recombinant protein (Sino …). In words: Octet BLI. The source holds these as a separate data set.
Experiment [5] shares this target. As to the kind of experiment: Octet BLI. This is another data set of the same source.

Read-outs that look alike come from different tables or passages of the source.

T2 sequence (Q9H7M9 33-194): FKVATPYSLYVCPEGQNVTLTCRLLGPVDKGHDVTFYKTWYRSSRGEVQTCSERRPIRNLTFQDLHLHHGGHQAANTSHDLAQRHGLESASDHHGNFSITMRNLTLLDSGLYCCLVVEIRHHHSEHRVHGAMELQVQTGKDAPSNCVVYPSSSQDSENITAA

B1: 9F9 humanized anti-VISTA antibody VH9/VL9 (antibody, V domains shown)
VH: QVQFVQSGAEVKKPGSSVKVSCKASGYTFSGYWMQWVKQAPGQGLEWIGAIYPGDGDTRYSQKFKGKVTLTADESTSTAYMELSSLRSEDTAVYYCARRDYGAWFAYWGQGTLVTVSS
VL: DIKVTQSPSSLSASVGDRVTITCKASQDINSYLSWYQQKPGKAPKTLIYRANRLVDGVPSRFSGSGSGQDYTFTISSLQPEDIATYYCLQYDEFPYTFGQGTKVEIK
For B1, the Kd in experiment [1] is 23.9 nM; in experiment [2], 37.7 nM; in experiment [3], 607 nM; in experiment [4], 26.6 nM.

B2: 9F9 humanized anti-VISTA antibody VH7/VL7 (antibody, V domains shown)
VH: QVQFVQSGAEVKKPGASVKVSCKASGYTFTGYWMQWVKQAPGQRLEWIGAIYPGDGDTRYSQKFKGKVTLTADTSASTAYMELSSLRSEDTAVYYCARRDYGAWFAYWGQGTLVTVSS
VL: DIKVTQSPSSLSASVGDRVTITCKASQDINSYLSWYQQKPGKAPKTLIYRANRLVDGVPSRFSGSGSGQEYTLTISSLQPEDFATYYCLQYDEFPYTFGQGTKVEIK
Take B2: the Kd is 56.7 nM in experiment [2] and 866 nM in experiment [3].

B3: 9F9-VH8/VL8 (antibody, V domains shown)
VH: QVQFVQSGAEVKKPGASVKVSCKASGYTFTGYWMQWVKQAPGQGLEWIGAIYPGDGDTRYSQKFKGKVTLTADKSTSTAYMELSSLRSEDTAVYYCARRDYGAWFAYWGQGTLVTVSS
VL: DIKVTQSPSSLSASVGDRVTITCKASQDINSYLSWYQQKPEKAPKTLIYRANRLVDGVPSRFSGSGSGTDFTLTISSLQPEDFATYYCLQYDEFPYTFGQGTKVEIK
With B3, the Kd was 36.6 nM in experiment [2] and 336 nM in experiment [3].

B4: 20E4 parental anti-VISTA antibody (VH0/VL0) (antibody, V domains shown)
VH: QVQLQQSGAELMKPGASVKISCKATGYTFSSSWVEWVRQRPGHGLEWIGEIFPGSGSTHYNEKFKGKATFTADTSSNTAYLQLSSLTSDDSAVYYCARRPPGWFFDVWGAGTTVTVSS
VL: DIVMTQSHKFMSTSVGDRVSITCKASQDVSTDVAWYQQKPGQSPKLLIYSASYRYTGVPDRFTGSGSGTDFTFTISSVQAEDLAVYYCQQHYSTPWTFGGGTKLEIK
With B4, in experiment [5], the Kd turned out to be 4.37 nM.

B5: 9F9 parental anti-VISTA antibody (VH0/VL0) (antibody, V domains shown)
VH: QVQFQQSGAELARPGASVKLSCKASGYTFTGYWMQWVKQRPGQGLEWIGAIYPGDGDTRYSQKFKGKVTLTADKSSSTAYMQLSSLASEDSAVYYCARRDYGAWFAYWGQGTLVTVSA
VL: DIKVTQSPSSMYASLGERVTITCKASQDINSYLSWFQQKPGKSPKTLIYRANRLVDGVPSRFSGSGSGQDYSLTISSLDYEDMGIYYCLQYDEFPYTFGGGTKLEIK
Consider B5, for which the Kd in experiment [1] was 12.2 nM; in experiment [2], 8.65 nM; in experiment [3], 5.03 nM; in experiment [4], 9.45 nM.

B6: 9F9 humanized anti-VISTA antibody VH15/VL15 (antibody, V domains shown)
VH: QVQLVQSGAEVMKPGASVKLSCKASGYTFTGYWMQWVKQRPGQGLEWIGAIYPGDGDTRYSQKFKGKATMTADTSISTAYMELSRLRSDDSAVYYCARRDYGAWFAYWGAGTTVTVSS
VL: DIVMTQSPSSLSASVGERVTITCKASQDINSYLSWFQQKPGKAPKTLIYRANRLVDGVPSRFSGSGSGTDFTFTISSVQPEDLAIYYCLQYDEFPYTFGGGTKLEIK
As for B6, the figures for the Kd in experiment [1] and in experiment [4] were 20.8 nM and 24.4 nM, respectively.

B7: 9F9 humanized anti-VISTA antibody VH14/VL15 (antibody, V domains shown)
VH: QVQLVQSGAEVMKPGASVKISCKASGYTFTGYWMQWVRQRPGQGLEWIGAIYPGDGDTRYSQKFKGKATMTADTSISTAYMELSRLRSDDTAVYYCARRDYGAWFAYWGAGTTVTVSS
VL: DIVMTQSPSSLSASVGERVTITCKASQDINSYLSWFQQKPGKAPKTLIYRANRLVDGVPSRFSGSGSGTDFTFTISSVQPEDLAIYYCLQYDEFPYTFGGGTKLEIK
On to B7, for which the Kd in experiment [1] was found to be 17.5 nM; in experiment [4] it was 20.3 nM.

B8: 20E4-VH1/VL1 (antibody, V domains shown)
VH: QVQLVQSGAEVKKPGASVKVSCKASGYTFSSSWVEWVRQAPGQGLEWMGEIFPGSGSTHYNEKFKGRVTMTRDTSISTAYMELSRLRSDDTAVYYCARRPPGWFFDVWGQGTTVTVSS
VL: DIQMTQSPSSLSASVGDRVTITCKASQDVSTDVAWYQQKPGKAPKLLIYSASYRYTGVPSRFSGSGSGTDFTLTISSLQPEDFATYYCQQHYSTPWTFGGGTKVEIK
Regarding B8, the Kd in experiment [5] was 3.54 nM.

B9: 20E4-VH4/VL4 (antibody, V domains shown)
VH: QVQLVQSGAEVKKPGASVKVSCKASGYTFTSSWVEWVRQAPGQGLEWMGEIFPGSGSTHYNEKFKGRVTMTRDTSTSTVYMELSSLRSEDTAVYYCARRPPGWFFDVWGQGTMVTVSS
VL: DIVMTQSPDSLAVSLGERATINCKASQDVSTDVAWYQQKPGQPPKLLIYSASYRYTGVPDRFSGSGSGTDFTLTISSLQAEDVAVYYCQQHYSTPWTFGGGTKVEIK
For the molecule B9, the Kd in experiment [5] is 6.22 nM.

B10: 20E4-VH3/VL3 (antibody, V domains shown)
VH: QVQLVQSGAEVMKPGASVKISCKATGYTFSSSWVEWVRQRPGQGLEWIGEIFPGSGSTHYNEKFKGKATMTADTSISTAYMELSRLRSDDTAVYYCARRPPGWFFDVWGAGTTVTVSS
VL: DIVMTQSPSSLSASVGDRVTITCKASQDVSTDVAWYQQKPGKAPKLLIYSASYRYTGVPSRFSGSGSGTDFTFTISSVQPEDLAVYYCQQHYSTPWTFGGGTKLEIK
Consider B10, for which the Kd in experiment [5] came to 3.09 nM.
